Usually inhibition stands for the drop in the measured response relative to a control, in per cent.

Assay [1] addresses T1, rVps1 (His-Vps1; yeast dynamin homolog Vps1) (Saccharomyces cerevisiae, UniProt P21576).
T1 sequence (P21576 1-704): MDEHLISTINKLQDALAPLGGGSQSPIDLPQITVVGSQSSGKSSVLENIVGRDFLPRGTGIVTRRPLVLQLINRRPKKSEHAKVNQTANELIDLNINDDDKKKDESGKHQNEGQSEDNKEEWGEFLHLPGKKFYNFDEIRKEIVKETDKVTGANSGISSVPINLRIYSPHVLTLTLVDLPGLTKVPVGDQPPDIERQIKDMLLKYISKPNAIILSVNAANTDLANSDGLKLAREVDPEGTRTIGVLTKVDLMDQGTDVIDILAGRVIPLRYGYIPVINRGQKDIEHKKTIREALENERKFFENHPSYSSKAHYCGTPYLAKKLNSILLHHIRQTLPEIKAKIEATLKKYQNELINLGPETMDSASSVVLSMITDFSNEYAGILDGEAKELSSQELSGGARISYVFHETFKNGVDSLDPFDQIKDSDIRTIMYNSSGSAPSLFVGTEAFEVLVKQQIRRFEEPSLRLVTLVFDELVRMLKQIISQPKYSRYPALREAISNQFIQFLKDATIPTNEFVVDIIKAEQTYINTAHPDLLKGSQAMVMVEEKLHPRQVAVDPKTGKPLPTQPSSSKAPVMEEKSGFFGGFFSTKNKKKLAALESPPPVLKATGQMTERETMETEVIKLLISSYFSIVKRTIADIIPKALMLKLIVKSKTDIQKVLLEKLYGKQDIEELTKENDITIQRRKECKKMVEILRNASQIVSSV
The experiment in a line: GTPase assay, released Pi by malachite green. The class given is biochemical. Particulars: read-out: % inhibition at 100 uM.

For assay [2], the target named is T2, recombinant Vps1 (yeast, UniProt P21576 1-704).
T2 sequence: T1 sequence (P21576 1-704)
The experiment in a line: far-Western, overlay or dot blot.

On to `O=C(N/N=C/c1ccc(O)c(O)c1)c1cc2ccccc2cc1O` [dynasore], for which the inhibition at 100 µM in assay [1] was roughly 60%.

B1: Vam3 full-length (1–252) (domain or fragment)
chain: MSFFDIEAQSSKGNSQQEPQFSTNQKTKELSNLIETFAEQSRVLEKECTKIGSKRDSKELRYKIETELIPNCTSVRDKIESNILIHQNGKLSADFKNLKTKYQSLQQSYNQRKSLFPLKTPISPGTSKERKDIHPRTEAVRQDPESSYISIKVNEQSPLLHNEGQHQLQLQEEQEQQQQGLSQEELDFQTIIHQERSQQIGRIHTAVQEVNAIFHQLGSLVKEQGEQVTTIDENISHLHDNMQNANKQLTRA
For the molecule B1, in assay [2], the binding result was “binds”.

B2: SNARE domain of Vam3 (190–252) (domain or fragment)
chain: TIIHQERSQQIGRIHTAVQEVNAIFHQLGSLVKEQGEQVTTIDENISHLHDNMQNANKQLTRA
B2: the binding result in assay [2] is “binds”.

These data come from article PMC3630463 (Nature communications, 2013).
